Laboratory results published in the RNAGym collection of RNA variant scans (doi:10.7554/elife.80360).

B1: Twister Ribozyme (parent)
chain: AACACUGCCAAUGCCGGUCCCAAGCCCGGAUAAAAGUGGAGGGGGCGG

Variants of: B1
Assay: self-cleavage, relative activity (ratio to wild type); higher = more cleavage; co-transcriptional

Variant | self-cleavage
A34G U37C | 0.0836
C3A A11U | 0.212
C9G G36A | 0.204
G41C G44A | 0.211
A30G G45C | 0.571
G24U G39A | 0.0948
A30C U31C | 0.841
C27U A35C | 0.641
U31C A34G | 0.664
C14G A35G | 0.138
A30G G47U | 0.877
C21G G45C | 0.0674
A11U G39U | 0.279
C19U G42U | 0.142
C8A C14A | 0.529
A4U U12C | 0.0758
C5U G43C | 0.126
C26G G36A | 0.0913
A23U G42A | 0.125
G17A G29U | 0.336
C21G G42U | 0.111

Variant | self-cleavage
C26U A32C | 0.451
C5U G36C | 0.785
G13U C46A | 0.361
U18C G38A | 0.371
C5A A32U | 0.454
C26G G28C | 0.142
G17C U37C | 0.0657
G36A G38A | 0.359
A2C U12A | 0.0702
A30U G39C | 0.185
A22G C46G | 0.328
A4G C5U | 0.855
A4G C5A | 0.892
G7C C19A | 0.0521
A2G C9A | 0.104
U12G A35C | 0.89
G16C C26U | 0.171
G17A | 0.783
A1U U31G | 0.0468
C3A G16U | 0.141
C15U G38U | 0.76

Variant | self-cleavage
C15U G38A | 0.831
C5A U18A | 0.118
C15A G39C | 0.124
U31G G42A | 0.497
U31G G42C | 0.699
C25G U37G | 0.104
G13C G17A | 0.0829
A10G G43U | 0.576
C20A G24U | 0.0913
G36U C46A | 0.31
G28C G41C | 0.217
A35C U37C | 0.592
A34U G42U | 0.145
U12G A32C | 0.9
C8A G17C | 0.0615
G16U G44C | 1.05
G28A G39U | 0.16
A4U G41C | 0.0883
C27U G28C | 0.568
A2C G43U | 0.0462
U6C A22G | 0.0819

Variant | self-cleavage
G29U G38U | 0.666
C21U G44A | 0.126
C15U G36C | 0.204
C14G G43A | 0.0789
A34C G36A | 0.0949
A34C G36C | 0.104
U6A A40C | 0.15
C20A C26U | 0.0622
U12G G48U | 0.789
G17U A40U | 0.145
A11C G42C | 0.419
C19A G47A | 0.139
C8G A35G | 0.222
G29U U37C | 0.444
A22U G45C | 0.401
A2G G39U | 0.122
C19G C20U | 0.117
A4U A23C | 0.0467
A10C C46U | 0.839
A10G U18C | 0.807
